Target: DNA polymerase mu (Polμ) wild type (Homo sapiens, UniProt Q9NP87 1-494)
Test: EMSA

Chain of DNA polymerase mu (Polμ) wild type (Q9NP87 whole entry): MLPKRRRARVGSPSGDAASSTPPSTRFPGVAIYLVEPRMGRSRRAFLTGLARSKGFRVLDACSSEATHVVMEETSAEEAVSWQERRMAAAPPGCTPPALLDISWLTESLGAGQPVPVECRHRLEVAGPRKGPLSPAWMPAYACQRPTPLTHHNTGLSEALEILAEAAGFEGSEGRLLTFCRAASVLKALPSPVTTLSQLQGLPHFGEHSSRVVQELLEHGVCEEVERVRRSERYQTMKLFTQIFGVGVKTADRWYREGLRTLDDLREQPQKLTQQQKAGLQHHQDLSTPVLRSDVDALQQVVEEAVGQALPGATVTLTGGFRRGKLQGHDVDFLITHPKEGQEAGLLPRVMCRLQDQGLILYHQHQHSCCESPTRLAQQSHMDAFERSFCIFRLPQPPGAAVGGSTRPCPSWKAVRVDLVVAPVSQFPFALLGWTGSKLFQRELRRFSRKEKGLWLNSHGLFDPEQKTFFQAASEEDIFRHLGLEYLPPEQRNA

B1: Blunt (P19+T19) (dsDNA)
DNA 1: GATCACAGTGAGTACAATA
DNA 2: TATTGTACTCACTGTGATC
  binding result: no binding

Source: article PMC1636348
